# From US20050025760A1 (KEIO UNIVERSITY, published 2005)
# T1: Dsg3-M5 (human, UniProt P32926 50-615, L75I; T77Y)
# T1 construct: extracellular domain; also called point-mutated human Dsg3 molecule M5; not shown: His tag of vector pEVmod-His
# T1 sequence (looked up): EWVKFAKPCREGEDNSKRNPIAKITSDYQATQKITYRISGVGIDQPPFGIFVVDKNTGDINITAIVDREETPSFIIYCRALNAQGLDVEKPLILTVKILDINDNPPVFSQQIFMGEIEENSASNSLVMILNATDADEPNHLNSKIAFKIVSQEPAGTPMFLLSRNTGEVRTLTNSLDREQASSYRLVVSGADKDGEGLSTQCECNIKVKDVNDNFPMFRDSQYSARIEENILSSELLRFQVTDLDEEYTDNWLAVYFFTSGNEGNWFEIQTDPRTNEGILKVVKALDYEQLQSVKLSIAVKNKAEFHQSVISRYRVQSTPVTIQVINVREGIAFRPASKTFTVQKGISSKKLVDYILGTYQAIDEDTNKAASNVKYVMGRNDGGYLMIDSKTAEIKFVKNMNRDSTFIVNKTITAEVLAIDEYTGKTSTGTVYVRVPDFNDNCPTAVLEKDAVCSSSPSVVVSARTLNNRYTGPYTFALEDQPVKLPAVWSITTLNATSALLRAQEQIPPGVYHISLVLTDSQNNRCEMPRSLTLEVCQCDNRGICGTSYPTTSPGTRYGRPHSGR
# T2: Dsg3-M7 (human, UniProt P32926 50-615, V3I; K7A; P8A)
# T2 construct: extracellular domain; also called hDsg3-M7
# T2 sequence (looked up): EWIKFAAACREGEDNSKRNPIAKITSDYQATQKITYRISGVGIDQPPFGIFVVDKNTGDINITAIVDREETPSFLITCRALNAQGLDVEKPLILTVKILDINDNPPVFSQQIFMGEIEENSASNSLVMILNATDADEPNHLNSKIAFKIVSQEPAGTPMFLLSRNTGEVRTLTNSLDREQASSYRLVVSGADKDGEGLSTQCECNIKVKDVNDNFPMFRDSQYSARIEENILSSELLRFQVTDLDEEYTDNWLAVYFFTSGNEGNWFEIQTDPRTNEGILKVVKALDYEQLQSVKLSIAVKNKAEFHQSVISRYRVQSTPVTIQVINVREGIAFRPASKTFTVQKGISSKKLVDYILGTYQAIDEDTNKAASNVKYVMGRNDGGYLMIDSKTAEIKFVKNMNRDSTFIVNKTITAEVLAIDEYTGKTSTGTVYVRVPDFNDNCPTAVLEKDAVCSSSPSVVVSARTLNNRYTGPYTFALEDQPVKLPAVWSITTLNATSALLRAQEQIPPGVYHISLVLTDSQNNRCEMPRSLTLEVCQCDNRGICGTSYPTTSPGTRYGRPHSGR
# T3: Dsg3-M4 (human, UniProt P32926 50-615, E70V; S73F)
# T3 construct: extracellular domain; also called point-mutated human Dsg3 molecule M4; not shown: His tag of vector pEVmod-His
# T3 sequence (looked up): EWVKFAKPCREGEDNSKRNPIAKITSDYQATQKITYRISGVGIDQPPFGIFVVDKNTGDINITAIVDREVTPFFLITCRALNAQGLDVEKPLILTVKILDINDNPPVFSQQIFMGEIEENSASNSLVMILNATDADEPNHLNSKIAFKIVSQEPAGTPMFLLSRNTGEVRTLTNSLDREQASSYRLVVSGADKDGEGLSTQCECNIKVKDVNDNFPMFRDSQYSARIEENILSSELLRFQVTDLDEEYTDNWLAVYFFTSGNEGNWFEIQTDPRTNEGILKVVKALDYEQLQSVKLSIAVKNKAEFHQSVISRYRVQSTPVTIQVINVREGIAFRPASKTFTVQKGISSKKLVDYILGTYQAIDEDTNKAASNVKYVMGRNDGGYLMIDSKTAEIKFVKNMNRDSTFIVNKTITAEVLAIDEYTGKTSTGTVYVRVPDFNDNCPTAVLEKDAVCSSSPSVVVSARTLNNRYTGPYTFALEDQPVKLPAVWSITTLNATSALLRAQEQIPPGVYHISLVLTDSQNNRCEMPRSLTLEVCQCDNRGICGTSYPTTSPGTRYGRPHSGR
# T4: Dsg3-M1 (human, UniProt P32926 50-615, T25H; Y28C; Q29A)
# T4 construct: extracellular domain; Dsg3-specific residues changed to the Dsg1-specific ones; also called point-mutated human Dsg3 molecule M1; not shown: His tag of vector pEVmod-His
# T4 sequence (looked up): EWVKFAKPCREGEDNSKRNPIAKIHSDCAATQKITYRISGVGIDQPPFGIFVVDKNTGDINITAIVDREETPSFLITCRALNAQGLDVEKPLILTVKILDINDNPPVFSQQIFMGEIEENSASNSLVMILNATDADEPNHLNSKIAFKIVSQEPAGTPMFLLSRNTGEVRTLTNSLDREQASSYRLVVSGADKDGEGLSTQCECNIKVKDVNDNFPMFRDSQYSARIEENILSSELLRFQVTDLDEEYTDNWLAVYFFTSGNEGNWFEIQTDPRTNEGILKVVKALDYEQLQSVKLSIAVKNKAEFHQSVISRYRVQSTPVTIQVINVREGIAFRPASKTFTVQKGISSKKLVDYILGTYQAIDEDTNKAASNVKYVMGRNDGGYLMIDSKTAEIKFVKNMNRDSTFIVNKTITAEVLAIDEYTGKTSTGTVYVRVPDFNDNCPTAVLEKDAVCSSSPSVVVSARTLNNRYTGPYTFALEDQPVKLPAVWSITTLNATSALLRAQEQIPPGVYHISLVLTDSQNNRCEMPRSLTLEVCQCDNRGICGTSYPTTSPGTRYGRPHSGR
# Columns and labels:
# Test in all cases: immunoprecipitation of point-mutated molecules (FIG. 5)
# Dsg3-M5 = molecular target: T1, Dsg3-M5
# Dsg3-M7 = molecular target: T2, Dsg3-M7
# Dsg3-M4 = molecular target: T3, Dsg3-M4
# Dsg3-M1 = molecular target: T4, Dsg3-M1
binder,measurement,setting,value
"anti-Dsg3 monoclonal antibody AK23 (antibody, mouse IgG1, V domains shown, Mouse IgG1 kappa hybridoma antibody) VH: QVQLQQSGTELVKPGASVKLSCKSSGYTFTSYWINWVKQRPGQGLEWIGNINPSNGGINYNEKFKSKATLTVDKSSSTAYMQLKSLTSEDSAVYYCARGGYDGYPWGQGTTVTVS VL: DIQMTQSPKFLLVSAGDRVTITCKASQSVSYDVAWYQQKPGQSPKLLISYASNRYTGVPDRFTGSGYGSDFTFTISTVQTEDLAVYFCQQDYSSPWTFGGGTKLELKR",binding result,Dsg3-M5,binds
same,binding result,Dsg3-M7,no binding
same,binding result,Dsg3-M4,binds
same,binding result,Dsg3-M1,binds
